Measured values published in PMC6771821, “Cryo‐EM structure of the MinCD copolymeric filament from Pseudomonas aeruginosa at 3.1 Å resolution” (Febs Letters, 2019).

Biological target: the molecule itself
Experiment: cryo-EM structure; unsupported MinCD filaments in solution; MinC and MinD each 0.5 mg/mL combined in equal proportion in 20 mM HEPES-Na, 100 mM potassium acetate, 5 mM magnesium acetate, pH 7.0; 1 mM ATP, 15 min at room temperature; helical reconstruction

B1: MinC from Pseudomonas aeruginosa, full-length, His6-tagged (natural protein, UniProt Q9HYZ7 1-263, looked up)
chain: MSQADLLDQDPVFQLKGSMLAVTILELAHNDLARLERQLADKVAQAPNFFRDTPLVMALDKLPEGEGRLDLPALLEVCRRHGLRTLAIRAGREEDIAAAQALDLPVLPPSGARERPLDIKDSAPRKPAEEPSPSAGEARPEPAKAEEKPAEPVSRPTKVVKTPVRGGMQIYAAGGDLIVLAAVSPGAELLADGNIHVYGPMRGRALAGVKGDATARIFCQQLAAELVSIAGNYKVAEDLRRSPQWGKAVHVSLSGDVLNITRL
notes: MinC (septum site-determining protein), Pseudomonas aeruginosa, residues 1-263, cloned into pET-15b; only residues 156-261 (MinC^C) are modelled in the cryo-EM map; the tag was not removed; also called MinC2 (dimer); source: E. coli C41(DE3), purified (HisTrap HP, dialysis); not shown: His6, N-terminal, kept
binding result: binds
